# Experiment: soluble fraction after stress (log2 fold change); higher = more stays soluble; pooled small domains, quantitative proteomics
# Conditions: stress: 50 degC
# Method in brief: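 The stress applied to every library was 50°C. These custom libraries of small protein domains were pooled and measured at high throughput with quantitative proteomics as the read-out. Aggregation propensity is expressed as the base-two logarithm of the fold change in how much of each protein remains soluble. The higher the value, the more of that protein stays in solution.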
row,Sequence,soluble fraction (log2)
1,HMNQSYQLWIKDDELGPTPRSVGVLNEHFEVDPAALTNYDAELLRRATFGISLEPRGGSPTGQP,-0.0224
2,HMNSHKIIDRLNQMITEKDLSEEMPAITEAFKNNERSAEDLKKYVAENLSKKLNAEEREKFVSLILQYRN,0.039
3,HMSEDTYNTLTKGTRVYNGVDYGAKYGYNPLYYFLNYNDLRIAYGADPAKLVEHYALFGIKENRVANRQIT,-0.098
4,HMTNKQEYAYQWLKSSIIENKIKPSTLLVERHLSEMLHISRTPVRTALMRLADEGFVVISPGRGMVVA,-2.03
5,HMERPSLDQVLAHAKALGIAPARFVAYADGRWGTGWRLSPHGRARAWEELDRHRNDPLGYRDKLDVALQSG,-0.0254
6,HMEWEVHSVTVTPELSGERLDVAATALLSQFSRALVQRWIDANELTLNERPVKAKSKVRVGDLIAVKAK,-0.874
7,HMDDPQAELLARAVRRVALAAAERTRRNEYGGVYLGLFRQFGISSYRRTPPARLHEALEWLERWRGDLM,-0.0675
8,HMLQFTYPRLHTKKSWYVDFMSFDPGAGKMRRKKFMLDGIPKITDRRKRAAELIEVLTKQLRAGWSPWVNV,-3.59
9,HMKKILLGDVNLDGKVDVNDVTLLQRYIAGETEVITSKDALTATNFNKDGNIDVLDVTDIQTFIANSE,0.0836
10,HMQLGEEAGDELVAIVRSVINDNDKALADYLAGKSSALKFLLGQVMRQTKGRADHALVQSLLEAELEAL,-0.169
11,HMSAITLDQARAIALDHAGISEGDATFVKEQTGTSSYEIEFYSGSNEYDYEIDKATGAILNVDR,0.0269
12,HMGRGAAKGPLKELGLDPVTGRPLVVKDGKFGMYVTDGETNAGLRRGDLVEQLTLDRGMELLAERRARADQ,0.203
13,HMASGLITEEQAKSKALAHAGLSASQVNFIWVKQDWEDGRRVYEVEFYTDDYQEYDYEIDARTGEILSFDY,-1.97
14,HMREGIQLGDPVRVIRDPLFGKIGAVSGLPSELRAIPTESEVRVLEVRFPDGTTTVVPRANIEVIEG,0.364
15,HMNETNKMPNLVNQTDSSAIAQLNAMELGLKITTKEESSETVLAGYVIRTEPAADTELTKNQAVTVYVS,0.00616
16,HMDKENVLQLQKDLLRLSVNALEKRYYQFSDILLLKYILPLVPKEISIDDQSRLRSLLSGIN,-0.238
17,HMSDPSRKADFIAALSSLGGSAGNGKLREQLGWDEPTYDAVKQTLLDEGAITNGRGRGGSVALAG,≥ 0.62
18,HMDHAVINSEEVTIKDLSEKIGVSAAEIIKALFTEGIIKTINDKIEYEYAQYVAGMFGVELTLKL,0.277
19,HMQHQSGLKSGEFEAISQQLQALLKENPLSLQEIKDKMQVTENHLIKVVSYLVSEEIIRQENGYLK,-0.729
20,HMQISDAGALLDAVRRVLAENPAQVEQFRAGKEKVMGFLVGQVMRATGGKANPQMLNDVLREELS,-0.0404
21,HMAITLEVAKKHLEMWLEAESEVAINQSYTIGGKSFTRANLAEIRKQIEYWSNKVAELENLA,0.0438
22,HMLDLPEISARIMEVFETKDRATISELSKLTGTNINTIKKHLSSLVENNYLIKHGKTRGAWYTKST,-0.104
23,HMGIFDIIQEINRQGVTVLLIEQNANMALKIADVGYVLETGRISLTGSGRELLANEAVKKAYL,-0.0514
24,HMTVPTEVALELMHATALEDNEQRILYIASFKEKHREHLHATIEVDGQEVTLARYADLVATGAYL,-0.505
25,HMDDGNHTEYIVLEKAKFYDEAGEYEEGRDLVLSFDKYQDNWKLVYTLGVFNKKLNNLEEARKYYKQALE,-0.0519

row,Sequence,soluble fraction (log2)
1,HMRSSNEAVSQRRDKILDYISATGRTSTEIVAKEFGVSVMTARRDLLYLMEKRLISKSSSGLFKVDNN,-2.42
2,HMTALTTEDLERRFYAKTYEGESAQKRLARLEISVFGELRQGRPESDRLHDLNNAVLEKERAALNAGAVG,0.123
3,HMDAEEISILLEKAVLQLPEKQKMIFQLKYFEDLSYKDIQIITGGSIGGLKANYHHAVTKIEKLLS,-0.0727
4,HMQSMEIDENEIPSIDKLSEYIEYFKRIYNALFDDKQLAITNIDVLERHFANNFNTLRFKMDE,-0.0595
5,HMVMSTDAELILEYLAKHQGEMEITDKSSPELIMDTFNMSKGAFKRALGSLYKSKTVVIESTKVLLNT,-1.44
6,HMTILTSSQRKALISKMIRQGGVESQSHLVKLLAREGVKVTQATASRDLEDLGATRVRDANGEFQYVIP,-0.271
7,HMLKPKDLHLGDSVRVLSLNLKGTVSSLPDTKGFLFVQMGIMRSKLHISDLQLIDEPVITAP,-0.128
8,HMQSAMALTKDLIEQQGKYYHRGQPFTGVGFAKNKKGKFVTEEPFKNGLLHGKRVNYDHNGHVLAREK,0.264
9,HMDTIVHFLSDGRRITVRIKRNARKNIILRPMAADAVSATIPPWLGRRQLSAWLSEREDLLLSVLSRAA,-2.14
10,HMAAEELTVDKILTAQSFGVTAEAILAKVNDPANTVATLTQADVDRLRAAGVPEGVVTALQARAPQ,0.0975
11,HMDGASVQRITELTATLNRYRHEYYNLAKPSVSDAVYDRLFDELAALEQKTGIVLSNSPTQTV,-0.247
12,HMQALDETTVSRIRQKAAARNLLLKVLAGQLGVARPTLSNVLARREAPSAALAARIRAFLDSP,-0.894
13,HMEYKKKIGELLIDGNKKLKAANIDTYILDTQLLLGKVLGKDKLYLITNKDEEVSNFKEREFYSLIEKRI,0.00227
14,HMSLLTIDELSQATGVSVRTLRYYVSSGVLDKPTGETRNARYGTHHLDQVRNIKKLQEEGLTLNRILEIKK,-1.65
15,HMTSSVIIPKLIGKTEEEAKVALAGLNVQVLYETHGDQANGIVIKQSFEEGTKVIKGVSIVITVNKVS,0.0698
16,HMKLRYRTQEELLGVAREYRRRGLPLSVIVIDFYHWTKFGDWKFDPAYWPDPVGMVRELRDMGVEAAV,-0.203
17,HMHPKTPDELLALMSEEQRGQIEQLAKLVLMAVSYSGASYYDAVTTMYPRMSEERRRIITHVLNTASP,-0.652
18,HMINDPSALGQRAFVDELLWMAGYVPEKIEIYQTLPNNSRVYRVKLDSVNGGFIFIRWDKKKKEHYV,0.114
19,HMVEPLIVRNFSINYADIDKLETKIKDYISNSDKSGVNRGRVTSDTRTNMLIVTETASKLAQVEQLLKALD,-0.181
20,HMLGERIKQIRKQKKMTQTDVATGIITKSMLSMIENGKATPSLPALQAIARRLQVTVEELML,-0.512
21,HMTTTPTSQMVTELRSRGWTLRALAQRLGVGHASINRWANGVTPDRDLVAALRALVASGEVP,-0.216
22,HMPSLILADEPTGNLDSRNSSEVIALLKNASKRYAQTIIMITHNRSIAQSADRVLQVSDGVLTDMG,0.0494
23,HMGGTTLIAKQATVTGDIQFSSNLDIEGRVVGAISVEPGKEAMLHVVEGGSVEGEIRVPSAVINGKVTGDI,0.101
24,HMLTEREQDTLNFIRQYIDEQGRSPLVSEIAKGLGIKSQGTTHRYIQALVDAGLLERHVGRTRGLHLT,0.0721
25,HMAIMISINAKGEVAWNDQIISLDDLAQRFNAAGQQAQKPTVQLRADKESRYDMVAQVMSRASEAGLSDIA,-0.781

row,Sequence,soluble fraction (log2)
1,HMKRNLVSVLDHIVGIGPKRRQSLRTHFGSLEKIKEASVEELAAAPGMNRTSAEAVRHFFDAQQELRGK,0.537
2,HMPFDRTVQLAGARARQLQALPRYREVLRLLDEGMNPREIGQVLDPPVTRQRASALIQQAKRAQMLGLFED,-0.857
3,HMGEAIPVPDIRHKSQADAERLLQDQGLAMMVTDTGYVKTLPANYILEQIPVAGEKVKSGHVVYVIINSG,0.0717
4,HMVAREAYTTQNLTDVFSISRQAVEKRAKREGWQSVPRKGRGGGKLWVVSSMPAETRDLLASLLLRK,-0.609
5,HMSMSTVGERIKKKRKNLNFTQQELAAKLNISAQAVSKWENGVALPDLGLMPKLAQVLESTVDGLLGYQGA,0.0315
6,HMGYLNDRQRLIKDFITENQPLKVSDLVKQFPNIGLSTLKKDLQYLRGEQVLTMIGKGKGSVYVLNKK,-0.446
7,HMVDTSDLPAIVEKVFADNPEQVNDILNGKDRVKGFLVGQIMKATRGQAPPDEVNKLIDATLEKMKAA,0.0819
8,HMITGSIQPKNGKYYAVLNLYDHTGKRRPKWVSTGYTVKGNKKKAQEVLNELTRRYSAQLPPSK,-0.512
9,HMAPQVKIPNLVDVSQRQAEAILNSYGLKVGHLIYKPDLAKDAVLGFMFNGRSLKAGDELAKGSSIDLILG,-0.097
10,HMTAPELSVGDYLEYRGKEYKVESLDMDGFITLTDTALEDAPRLISRVTFLTDEFIRSGEYMVIT,-0.169
11,HMDPFVILGISKDSSQSEILEAYKTKRAYYQEHVFDEGDQGAQAARMLGQLDDAYQQAMELSHE,-0.062
12,HMDLLESLSAREREVVHLASRGLVNKLIARELGITERTVKAHLSSAFEKLHIKDRVHLALLVNGI,-1.45
13,HMDWFDELKVSTDDSGRVTAPEESEFMFQTSNEKIFAGGDMVRGSDLVVTAIWEGRQAAEGIMDYLD,-0.16
14,HMEAISSESIKKMIKSYVSGEDASKPLSDQQIADLLVKEGYMISRRTVAKYRDELGILSSSKRKR,-0.0456
15,HMHETMGQIIKRLRKERGLTQESLAERLGVTFQAVSKWETDAGMPDVSQIVPLANAFGVRTDVLFGLEGRD,-0.111
16,HMDIEITIPPEAKELDVSKILISGNIITDEQEFLDYLKQNNVAAFKDGNYKLNKNMTTEEIVNQIK,0.498
17,HMSHSVLIDISQLRIGMYIQLDVGWMHHPFPVSSFRVASLEQIEALRTLNLAQVRYFPAKSDPV,-3.6
18,HMQISGSEELEKIVQTVLEKNTDVVEEYKSGKTKVFAFLMGQVMKESRGKANPRLAKDILEKFLA,-0.0362
19,HMRTYDPQAVELNNKALELINQGRLDSALLVYDQSIKTDKTYYFPHIGKSIIYMRKKDWNKAFEETQQAIK,0.18
20,HMTGMDALIGRRVFVSEEILPGDAGGRVAVDGDSWRAISVGTAKPIPAGTEVRIHGYKSLILEVEPI,-0.162
21,HMPGEATVPSVIGMTKAEAKAKLQASGFELGYSEFVASDKPKGEIVEQDPGAGETAKGGTEVNVKISDGS,-0.0145
22,HMEGVTVPDVTRISLDEAEELLTSYGLRFEVADRRANSAFPGNYVIDQAPSAEVIVKPNRKIYLTVNAA,-0.134
23,HMTVVSVDDQASASSEAIRTKVAGDSAARMSVDAGGKITWGAGSASGDVTLYRSAANTLKTDDTLVAT,-0.0266
24,HMTAFSEQLIKLRKQKGLSQEQLGAAVGVTRQTVSKWELGDTTPELGKLVQLSDYFQLSIDELVGH,-0.0666
25,HMQVRVERSRDKVVISGVNYYIHPVRKGETVYSIARAYGITTQDLVRENPSAAEGLKEGQSIRIPERLVD,0.0927
